According to patent publication US20150353950A1, “TRANSGENIC PLANTS” (Durham University, priority 2012, published 2015):

How the values were obtained:
SUMO1 = molecular target: T1, SUMO1 (Arabidopsis thaliana, UniProt P55852); assay: Far-western / peptide array of GID1 SIM peptides probed with SUMO1; assay type: binding; conditions: for SIM-SUMO1 interaction (far-western): 1 μg peptide spotted on PVDF, probed with His:proAtSUMO1 (10 μg/ml); for interaction with SUMO1 (peptide array): peptide arrays of GID1 SIMs
T1 construct: His (N); made in house; host or cells: E. coli
Method: FIGS. 9A-C. GID1a contains a functional SIM motif in the N-terminal region. a, amino acid positions of two putative SIMs (SUMO interacting motifs) in the GID1a N-terminal domain (SEQ ID NO: 59). Lower panel, far-western assays of two peptides corresponding to SIM A (SEQ ID NO: 60) and SIM B (SEQ ID NO: 58). […] Number indicates molecular mass (kDa). Non-transgenic, wild-type extracts (wt) were used as a negative control. c, mean root growth of 10 days old seedlings in the presence of 100 mM NaCl expressed as a inhibition (%) relatively to the untreated controls. Error bar=s.e.m. n=16.
Peptides corresponding to the putative SIMs in GID1 were purchased from Cambridge Research Biochemicals. 1 μg of each peptide was spotted on a PVDF membrane. Membranes were washed in 100% Ethanol, equilibrated in TBST (25 mM Tris HCl, pH 8.0, 150 mM NaCl, 0.05% Tween 20) and blocked in TBST-Milk 5%. Peptides were probed overnight at 4° C. with recombinant His:proAtSUMO1 (10 μg/ml), washed and subsequently probed with SUMO1 antibodies for standard chemoluminescence-based detection.

GID1a [1] = molecular target: T2, GID1a (Arabidopsis thaliana, UniProt Q9MAA7); assay: GST pull down assay with GST:GID1a; assay type: binding; conditions: presence or absence of GA3 (10 μM)
T2 construct: The GID1a ORF was amplified by PCR from whole cDNAs from seedlings with oligos LC73 and LC74; made in house; host or cells: E. coli
T2 sequence (Q9MAA7 1-345): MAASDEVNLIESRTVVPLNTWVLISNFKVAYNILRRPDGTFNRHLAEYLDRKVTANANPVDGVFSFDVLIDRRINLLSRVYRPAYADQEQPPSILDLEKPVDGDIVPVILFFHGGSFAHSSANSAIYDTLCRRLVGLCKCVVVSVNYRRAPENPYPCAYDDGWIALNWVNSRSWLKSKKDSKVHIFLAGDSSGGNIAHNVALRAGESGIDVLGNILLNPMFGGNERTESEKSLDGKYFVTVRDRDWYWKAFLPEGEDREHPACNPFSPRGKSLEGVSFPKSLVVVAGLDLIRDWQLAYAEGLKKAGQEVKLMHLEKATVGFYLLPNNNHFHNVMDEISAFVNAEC
Method: FIGS. 4A-F. SUMOylated DELLA binds GID1 independently from GA. a, crossspecies alignment of SIM B in the GID1 protein amino terminal extension (grey). Alignment discloses SEQ ID NOS 50-55, respectively, in order of appearance. b, GST pull down assay between His:AtSUMO1 and GST:GID1a or GST in the presence (+) or absence (−) of GA3 (10 μM). Asterisk indicates a cross-reacting band. c, GST pull down assay between plant-derived GFP:RGA proteins with recombinant GST:GID1a or GST. d, mean germination rates (percentage of visible green cotyledons) of wild type (wt), ots1 ots2 double mutants and transgenic lines (T4). n=40-80 for each treatment/genotype combination. Error bar=s.d. of three biological replicates. e, images of NaCl-grown seedlings. Bar=1 cm f, model for the SUMOylation-dependent DELLA accumulation. For recombinant proteins, affinity purified GST:GID1a (0.1 μg) or GST were mixed with His:AtSUMO1 (0.1 μg) and incubated in 1× reaction buffer (Gamborg's B5—minimal organics, 50 mM NaCl, 0.05% Igepal CA-630, 1 mM DTT, 50 mM Tris HCl, pH 7.5). GA3 was added at a final concentration of 10 μM. Proteins were pulled-down using the μMACS GST Isolation Kit, according to the manufacturers' instruction (Miltenyi biotech). […]

GID1a [2] = molecular target: T2, GID1a; assay: SPR (Biacore 2000) on immobilised GID1a; assay type: binding
Method: FIG. 17. SUMO inhibits GID1a binding to RGA-DELLA protein Interaction between RGA alone with GID1a (red) and, RGA and SUMO1 (AtS1, blue) with GID1a both in the presence of GA3. […] Method: SPR was carried out on a Biacore 2000 instrument at 25° C. Purified GID1a was amine-coupled to a CM5 sensor chip (GE Healthcare). Flow cell 1 was blocked using ethanolamine and used as reference. Approx 500 RU of GID1a was bound to flow cells 2 and 3. All binding assays were carried out in HBS-EP buffer (10 mM HEPES pH 7.5, 150 mM NaCl, 1 mM EDTA, 1 mM DTT, 0.005% P20) at a flow rate of 20 μl/min using 180 second injections followed by 180 s of dissociation in HBS-EP. Each condition was run in duplicate using proteins at 100 μg/ml in HBS-EP (containing 100 μM GA3 as appropriate). Regeneration used 10 mM glycine pH 1.5 at 30 μl/min for 30 s.
FIGS. 18A and B. GID1a—SUMO Interaction Data Sensorgram of interaction between SUMO1 (AtS1) with GID1a.

[3] = molecular target: T3, SUMOylated GFP:RGA (plant-derived)
T3 chain 1: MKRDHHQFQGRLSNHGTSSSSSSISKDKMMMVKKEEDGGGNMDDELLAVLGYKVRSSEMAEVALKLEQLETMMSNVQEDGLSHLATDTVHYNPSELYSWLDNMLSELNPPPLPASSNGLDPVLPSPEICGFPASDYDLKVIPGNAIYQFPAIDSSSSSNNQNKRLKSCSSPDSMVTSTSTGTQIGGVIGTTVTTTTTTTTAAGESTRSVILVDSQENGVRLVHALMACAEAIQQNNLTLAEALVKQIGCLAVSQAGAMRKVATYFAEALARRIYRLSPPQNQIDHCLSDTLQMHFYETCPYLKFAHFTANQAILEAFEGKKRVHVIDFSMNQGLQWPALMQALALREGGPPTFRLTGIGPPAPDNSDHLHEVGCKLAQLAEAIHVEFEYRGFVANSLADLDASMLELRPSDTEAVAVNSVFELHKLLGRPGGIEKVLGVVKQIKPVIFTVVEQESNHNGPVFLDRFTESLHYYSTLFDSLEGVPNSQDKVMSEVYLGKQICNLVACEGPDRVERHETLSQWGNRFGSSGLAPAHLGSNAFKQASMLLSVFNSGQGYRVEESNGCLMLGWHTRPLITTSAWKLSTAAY
T3 chain 2: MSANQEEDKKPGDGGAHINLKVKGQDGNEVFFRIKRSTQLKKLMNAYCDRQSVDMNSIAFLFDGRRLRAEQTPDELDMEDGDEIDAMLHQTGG

T1 sequence (P55852 whole entry): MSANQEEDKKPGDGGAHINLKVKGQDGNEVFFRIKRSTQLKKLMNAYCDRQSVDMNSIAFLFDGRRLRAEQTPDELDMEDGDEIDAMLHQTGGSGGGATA

Q: Which “SIM-SUMO1 interaction (far-western)” value (SUMO1) does the source give for “SIM B: peptide corresponding to putative SUMO interacting motif B in the GID1a N-terminal domain (SEQ ID NO: 58) (VVPLNTWVLISN; listed as Arabidopsis thaliana)” here?
A: The value was “Binding between the SIM and SUMO1 occurs”.

Q: What about the “interaction with SUMO1 (peptide array)” value (SUMO1) of the same molecule?
A: The value was “shown to be a genuine SIM”.

Q: “SIM B V22A: SIM B peptide with substitution of a hydrophobic amino acid for an alanine residue (VVPLNTWALISN)” was tested. Which “SIM-SUMO1 interaction (far-western)” value (SUMO1) did it give?
A: Its value is “strongly reduced SIM-SUMO1 interaction”.

Q: And the “interaction with SUMO1 (peptide array)” value (SUMO1)?
A: Its value is “reduction in interaction”.

B1: AtS1: Arabidopsis small ubiquitin-like modifier SUMO1, recombinant (protein)
chain: T3 chain 2
Q: B1 was tested. Which “binding to GST:GID1a (GST pull down)” value (GID1a [1]) did it give?
A: Its value is “can bind to SUMO1 from Arabidopsis in a GA-independent manner”.

Q: What about the “binding of AtS1 to GID1a (SPR sensorgram)” value (GID1a [2]; 25° C., HBS-EP buffer, proteins at 100 μg/ml) of the same molecule?
A: Its value is “binding and saturation of AtS1 to GID1a followed by disassociation”.

Q: And the “effect on RGA binding to GID1a (SPR combined response)” value (GID1a [2]; RGA and AtS1 together, in the presence of GA3 (100 μM))?
A: Its value is “combined response (blue) is reduced in the presence of AtS1”.

B2: SUMOylated RGA: plant-derived SUMOylated form of GFP:RGA DELLA protein (protein)
chain 1: T3 chain 1
chain 2: T3 chain 2
modifications: left off: large carriers
notes: plant-derived SUMOylated form of GFP:RGA DELLA protein
Q: Which “binding to GST:GID1a (GST pull down)” value (GID1a [1]) does the source give for B2 here?
A: Its value is “could bind to GST:GID1a even in the absence of GA”.

B3: His:OTS1 (protein)
chain: MTKRKKEVIDVDCSEKKDFVIDWSSAMDKEDEVPELEIVNTTKPTPPPPPTFFSDDQTDSPKLLTDRDLDEQLERKKAILTLGPGLPDKGEKIRLKIADLEEEKQRRVLEGSKMEVDRSSKVVSSTSSGSDVLPQGNAVSKDTSRGNADSKDTSRQGNADSKEVSRSTFSAVFSKPKTDSQSKKAFGKELEDLGCERRKHKAGRKPVTRLSNGWRLLPDVGKAEHSAKQFDSGLKESKGNKKSKEPYGKKRPMESSTYSLIDDDDDDDDDDDNDTSGHETPREWSWEKSPSQSSRRRKKSEDTVINVDEEEAQPSTVAEQAAELPEGLQEDICYPTRDDPHFVQVCLKDLECLAPREYLTSPVMNFYMRFLQQQISSSNQISADCHFFNTYFYKKLSDAVTYKGNDKDAFFVRFRRWWKGIDLFRKAYIFIPIHEDLHWSLVIVCIPDKKDESGLTILHLDSLGLHSRKSIVENVKRFLKDEWNYLNQDDYSLDLPISEKVWKNLPRRISEAVVQVPQQKNDFDCGPFVLFFIKRFIEEAPQRLKRKDLGMFDKKWFRPDEASALRIKIRNTLIELFRVSDQTE
Q: Which “in vitro deSUMOylation of immunoprecipitated GFP:RGA (anti-SUMO1 immunoblot)” value [3] does the source give for B3 here?
A: The value was “dramatic reduction of the higher molecular weight, anti-SUMO1 cross-reacting bands only in the tubes containing wild-type OTS1”.
